Data: US20110112172

Columns and labels:
[1] = target: biotinylated human D-SDF-1 (mirror-image CXCL12) (Homo sapiens) (UniProt P48061); experiment: pulldown; settings: 37 C
[2] = target: human SDF-1 alpha (CXCL12) (Homo sapiens) (UniProt P48061); experiment: SPR; settings: L-RNA, 37 C
Sequence of human SDF-1 alpha (CXCL12) (Homo sapiens) (P48061 22-89): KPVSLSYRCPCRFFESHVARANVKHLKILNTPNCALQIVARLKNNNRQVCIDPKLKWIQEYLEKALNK

Sequence of biotinylated human D-SDF-1 (mirror-image CXCL12) (Homo sapiens) (P48061 22-92): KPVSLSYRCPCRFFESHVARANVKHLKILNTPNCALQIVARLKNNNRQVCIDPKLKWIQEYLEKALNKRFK

Work on “GCGUGGUGUGAUCUAGAUGUAUUGGCUGAUCCUAGUCAGGUACGC [193-G2-012 aptamer (D)]” yielded a Kd [1] of 0.3 nM.
“AGCGUGGUGUGAUCUAGAUGUAUUGGCUGAUCCUAGUCAGGUACGCU [193-G2-001 aptamer (D)]” gave a Kd ([1]; better than 192-A10-001 in competition) of 0.3 nM.
“GUGCUGCGGGGGUUAGGGCUAGAAGUCGGCCUGCAGCAC [197-B2 Spiegelmer]” gave a Kd [2] of 0.9 nM.
Sequence “AGCGUGGUGUGAUCUAGAUGUAUUGGCUGAUCCUAGUCAGGUACGCU [193-G2-001 Spiegelmer]” has a Kd [2] of 0.5 nM.
For “CGGGAGGUUAGGGCUAGAAGUCGGUCCCG [191-D5-007 Spiegelmer]”, the Kd [2] was 0.8 nM.
With “CGGGAGGUUAGGGCUAGAAGUCGGUCCCG [191-D5-007 aptamer (D)]” the Kd ([1]; somewhat better than 191-D5-001 in competition) was 2.2 nM.
For “GAGAUAGGGGUUAGGGCUUAAAGUCGGCUGAUUCUC [190-A3-004 Spiegelmer]”, the Kd [2] was 4.7 nM.
With “AGCGUGGCGAGGUUAGGGCUAGAAGUCGGUCGACACGCU [191-D5-001 Spiegelmer]” the Kd ([2]; FIG. 21 cited here is labelled 191-D5-007) was 0.8 nM.
In the case of “GCUGUGAAAGCAACAUGUCAAUGAAAGGUAGCCGCAGC [192-A10-001 Spiegelmer]”, the Kd ([2]; 1 mM Mg, 1 mM Ca) is reported as 1 nM.
For “GAGAUAGGGGUUAGGGCUUAAAGUCGGCUGAUUCUC [190-A3-004 aptamer (D)]”, the Kd ([1]; same affinity as 190-A3-001) was 4.6 nM.
“GCUGUGAAAGCAACAUGUCAAUGAAAGGUAGCCGCAGC [192-A10-001 aptamer (D)]” showed a Kd ([1]; 1 mM Mg, 1 mM Ca, pH 7.4) of 1.5 nM.
